# From IntAct's records for PubMed 15841490
# B1: SH2 domain-containing protein 1A (Homo sapiens), O60880-1 (parent)
# chain: MDAVAVYHGKISRETGEKLLLATGLDGSYLLRDSESVPGVYCLCVLYHGYIYTYRVSQTETGSWSAETAPGVHKRYFRKIKNLISAFQKPDQGIVIPLQYPVEKKSSARSTQGTTGIREDPDVCLKAP
# partner: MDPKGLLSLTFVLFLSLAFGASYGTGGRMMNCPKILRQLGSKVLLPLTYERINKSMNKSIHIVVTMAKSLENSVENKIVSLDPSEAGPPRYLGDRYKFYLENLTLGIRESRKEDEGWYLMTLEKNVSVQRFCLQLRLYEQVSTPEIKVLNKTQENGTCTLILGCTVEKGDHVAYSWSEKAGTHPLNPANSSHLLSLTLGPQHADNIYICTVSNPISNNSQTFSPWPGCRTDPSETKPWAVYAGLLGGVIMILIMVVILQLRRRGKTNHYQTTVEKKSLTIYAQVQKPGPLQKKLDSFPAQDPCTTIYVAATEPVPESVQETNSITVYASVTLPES
# Variants of: B1
# Conditions: with slaf1_human SLAMF1, Q13291
row,Variant,effect of a mutation on the interaction
1,G16D,disrupting interaction strength
